According to US20030152571A1:

Columns and labels:
[1] = molecular target: human vitronectin receptor αvβ3 purified from human placenta (human) (UniProt P06756); experiment: BIAcore, αvβ3 immobilized in a hybrid bilayer membrane on the sensor surface, mAb in solution
[2] = molecular target: human vitronectin receptor αvβ3 purified from human placenta (human) (UniProt P06756); experiment: competition: 1 ug/ml αvβ3 preincubated with unlabeled antibody, then binding of 1 ug/ml D12
[3] = molecular target: human vitronectin receptor αvβ3 purified from human placenta (human) (UniProt P06756); experiment: BIAcore; αvβ3 in a hybrid bilayer membrane on the sensor, mAb at 100, 25, 6 nM in triplicate
[4] = molecular target: human vitronectin receptor αvβ3 purified from human placenta (human) (UniProt P06756); experiment: ORIGEN competition: αvβ3-biotin (1 ug/ml) preincubated with unlabeled antibody, then 1 ug/ml Tag-LM609
[5] = molecular target: rabbit αvβ3 receptor on rabbit smooth muscle cells (rabbit); experiment: cell-based or functional assay
[6] = molecular target: human vitronectin receptor αvβ3 purified from human placenta (human) (UniProt P06756); experiment: BIAcore; immobilized αvβ3, mAb in solution

Substance: murine monoclonal antibody LM609
- koff [1]: 0.00051 s⁻¹
- kon [1]: 1.1e+06 M⁻¹ s⁻¹
- % Inhibition at 0.1 ug/ml [2]: 3%
- % Inhibition at 1 ug/ml [2]: 29%
- % Inhibition at 10 ug/ml [2]: 68%
- Kd [3]: 0.46 nM
- % Inhibition at 0.1 ug/ml [4]: 3%
- % Inhibition at 1 ug/ml [4]: 41%
- % Inhibition at 10 ug/ml [4]: 79%
- Inhib (%) R-SMC (50 mg/ml) [5]: 43%
- Kd [6]: 3.8 nM
